“Also recorded” adds a separate entry of the source.
Legend:
[1] = biological target: T1, GC-C (Homo sapiens, UniProt P25092); settings: other reports (Hamra et al. 1996); cited from earlier work
T1 construct: endogenous in cells; host or cells: T84 cells

[2] = tested on: anesthetized rats; assay: Diuresis and natriuresis induced by infused native proUGn in anesthetized rats; type: in vivo, rat
Protocol: (§1) Experiments were performed with 200-250 g male Sprague Dawley rats (Charles River Laboratories, Wilmington, Mass., United States of America). Rat test diets were obtained from a commercial supplier (Harlan Teklad, Madison, Wis., United States of America). For some experiments, anephric animals were prepared by surgical acute ligation of the renal pedicles. As necessary, animals were anesthetized with Nembutal (60 mg/kg body weight ip).
Na, K, and fluid excretion: Na and K concentrations are analyzed on an IF model 943 flame photometer (Instrumentation Laboratory Company, Lexington, Mass., United States of America). Urine is collected from ureteric canulae or by the use of metabolic cages. Urine volume is determined gravimetrically.
Native proUGn is purified from rat small intestine. Animals are sacrificed by anesthetic overdose, and approximately 20 cm of proximal small intestine is removed. The tissue is cut longitudinally, rinsed with saline, and the mucosal layer is isolated by scraping with a microscope slide. Scraped material is snap-frozen on a metal plate chilled to −78.5° C., then homogenized in 50 mM HEPES, pH 7.4, containing protease inhibitor. The homogenate is cleared by centrifugation at 50,000×g, and the supernate is fractionated sequentially by HPLC on a MonoQ anion exchange column and a VYDAC C-18 reverse-phase column. The HPLC chromatogram of this second chromatography step is shown in FIG. 10a, with a Western blot of the individual HPLC fractions shown in the inset, confirming the presence of proUGn. The purified material was dried to remove the HPLC solvents and resuspended in physiological saline. Recovery is measured by quantitative proUGn immunoassay.
Native proUGn is infused for 60 min into a group of 5 anesthetized rats, the standard infusion containing approximately 180-pmol peptide. Given an estimated rat plasma volume of 10 mL, the infusion rate was approximately […]. Blood pressure, urine production, and sodium excretion were monitored for approximately 40 minutes prior to the infusion, during the infusion, and for approximately 50 minutes after the infusion to measure the effect of the proUGn on diuresis and natriuresis. For comparison, a control group of five rats was infused with regular saline, one rat was infused with a solution of proUGn that had been neutralized by incubation with antibodies 6910 and 6912, and one rat was infused with a solution containing STa at 5 μg/kg/hr.

[3] = HPLC analysis of proUGn metabolites in plasma and urine; type: in vivo, rat
Protocol: Unless otherwise stated, HPLC conditions for the detection and identification of proUGn and related peptides are as follows: Vydac 218TP™ C-18 reverse-phase column (Grace Vydac, Hesperica, Calif., United States of America); equilibration of the column with H2O with 0.1% TFA for 25 minutes, followed by a 30 minutes gradient from 0% acetonitrile (with 0.1% TFA) to 50% acetonitrile (with 0.1% TFA), 5 min wash with 100% acetonitrile (0.1% TFA).
Plasma samples were taken 2, 5, and 10 min after bolus injection of ^35S-proUGn (about 10^6 cpm) into the carotid artery (n=2 for each timepoint). Urine was collected for 30 min at the end of a 60 min arterial infusion of ^35S-proUGn (n=7). The cpm/μL in the infused material was approximately 100 times lower than the cpm/μL in the solution used for the bolus injection. Plasma and urine samples were applied to the HPLC column and eluted, with the radioactivity in each fraction measured in a scintillation counter.

[4] = Kidney clearance and tissue fate of infused or bolus-injected 35S-proUGn; type: in vivo, rat
Protocol: as §1
Radioactive proUGn was prepared by coupled in vitro transcription/translation in the presence of ^35S-Cys and ^35S-Met from a cDNA template that encoded full-length proUGn (minus the signal peptide).
A solution containing radioactively-labeled r-proUGn was infused by iv into anesthetized rats for 60 min. The concentration of radioactivity in the plasma and the urine was measured via scintillation counting at timepoints throughout the infusion. […] At the end of the 60 min infusion, tissue samples were collected from the brain, thymus, lung, small intestine, skeletal muscle, spleen, heart, kidney, and liver and assayed for radioactivity by scintillation counting.
To measure the rate of kidney clearance of proUGn, plasma levels of ^35S-proUGn were monitored following bolus injection of the radiolabelled propeptide. Bolus injections (about 10^6 cpm) were given to groups of control (i.e., normal) rats and to anephric rats. At various timepoints after the injection, blood samples were removed and fractionated by HPLC. Radioactivity in each HPLC fraction was measured in a scintillation counter. […] Taken together, the results from these experiments indicate that the kidney appears to be the major route of clearance for proUGn.

[5] = steady iv infusion over 60 min, FIG. 8a

T1 sequence (P25092 24-1073): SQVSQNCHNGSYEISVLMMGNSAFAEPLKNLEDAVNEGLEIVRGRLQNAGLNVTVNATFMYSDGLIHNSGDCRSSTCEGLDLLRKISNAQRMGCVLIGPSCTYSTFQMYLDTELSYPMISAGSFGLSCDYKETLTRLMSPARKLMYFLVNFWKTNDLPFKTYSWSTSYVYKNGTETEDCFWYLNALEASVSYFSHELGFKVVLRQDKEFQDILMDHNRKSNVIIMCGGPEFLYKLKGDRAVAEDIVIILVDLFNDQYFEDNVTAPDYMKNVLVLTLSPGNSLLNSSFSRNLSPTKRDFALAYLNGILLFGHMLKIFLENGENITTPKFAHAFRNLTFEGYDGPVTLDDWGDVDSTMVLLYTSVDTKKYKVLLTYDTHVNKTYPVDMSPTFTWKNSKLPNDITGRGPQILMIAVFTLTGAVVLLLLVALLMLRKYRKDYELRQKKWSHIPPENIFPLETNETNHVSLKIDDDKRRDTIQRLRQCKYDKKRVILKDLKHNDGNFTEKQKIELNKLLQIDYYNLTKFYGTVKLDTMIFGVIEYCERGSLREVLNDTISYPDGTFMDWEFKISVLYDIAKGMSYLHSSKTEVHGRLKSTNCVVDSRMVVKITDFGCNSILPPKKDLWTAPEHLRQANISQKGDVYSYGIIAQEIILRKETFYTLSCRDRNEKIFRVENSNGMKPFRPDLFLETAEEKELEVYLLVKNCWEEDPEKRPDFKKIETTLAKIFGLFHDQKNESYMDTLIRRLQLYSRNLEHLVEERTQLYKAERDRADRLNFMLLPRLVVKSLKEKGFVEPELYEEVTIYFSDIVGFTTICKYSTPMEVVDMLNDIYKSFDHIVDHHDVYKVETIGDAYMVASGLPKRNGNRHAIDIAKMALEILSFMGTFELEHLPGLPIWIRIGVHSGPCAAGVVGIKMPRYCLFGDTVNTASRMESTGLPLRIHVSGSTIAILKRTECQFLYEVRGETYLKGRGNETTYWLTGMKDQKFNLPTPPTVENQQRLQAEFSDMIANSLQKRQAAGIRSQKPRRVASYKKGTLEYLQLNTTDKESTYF

B1: prouroguanylin (protein, listed as Rattus norvegicus)
chain: VYIKYHGFQVQLESVKKLNELEEKQMSDPQQQKSGLLPDVCYNPALPLDLQPVCASQEAASTFKALRTIATDECELCINVACTGC
notes: propeptide of UGn18
activation of GC-C [1]: inability
sodium excretion following proUGn infusion ([2]; 60 min infusion of approximately 180 pmol peptide, after infusion): 3200 nmol/min
sodium excretion ([2]; 60 min infusion, FIG. 10c): mirrored the increase in urine flow rate
urine flow ([2]; 60 min infusion, anesthetized rats, FIG. 10b): increase in urine flow
onset of the response to proUGn ([2]; after beginning infusion): 20 to 40 min
duration of the response to proUGn ([2]; after terminating the infusion): more than several hours
sodium excretion before proUGn infusion ([2]; baseline of the infused animals): 60 nmol/min
natriuretic response compared with responses reported in the literature for UGn18 ([2]; comparison with literature UGn18 infusion): many times greater
increase in urine production ([2]; infusing exogenous proUGn into the bloodstream): ≤ 50 fold

B2: ^35S-proUGn: proUGn prepared by coupled in vitro transcription/translation in the presence of 35S-Cys and 35S-Met (protein)
chain: B1 chain
integrity in plasma (HPLC of radiolabelled species) ([3]; plasma 2, 5, 10 min after bolus injection, FIG. 9a): appears to remain intact in plasma
radioactive species in urine (HPLC) ([3]; urine collected 30 min at end of 60 min infusion, FIG. 9b): at least two, and possibly three, proUGn-related products
clearance from plasma, control versus anephric rats ([4]; bolus injection about 10^6 cpm, FIG. 8c): cleared more quickly in the control animals; also recorded: cleared rapidly from the plasma of a normal animal
tissue distribution of radioactivity ([4]; end of 60 min infusion, brain, thymus, lung, small intestine, skeletal muscle, spleen, heart, kidney, liver, FIG. 8b): only the kidney samples contained significant levels of radioactivity; also recorded: specific activity of labeling in the kidney is greater than in any other tissue
plasma level of radioactivity [4, 5]: remained steady; also recorded: stable plasma level of radioactivity
urine level of radioactivity [4, 5]: increased dramatically

B3: proguanylin (protein, listed as Rattus norvegicus)
chain: MNAWLLSVLCLLGALAVLVEGVTVQDGDLSFPLESVKQLKHLREVQEPTLMSHKKFALRLPKPVAPELCSQSAFPEALRPLCEKPNAEEILQRLEAIAQDPNTCEICAYAACTGC
notes: propeptide of Gn15
activation of GC-C [1]: inability

Source: US8173596B2, “Prouroguanylin, and synthetic analogs or proteolytic cleavage products derived from it, as therapeutic and diagnostic agents for diseases involving salt and/or fluid homeostasis” (The University of North Carolina at Chapel Hill, priority 2004, dated 2012)
